Laboratory results from the Human Domainome abundance scans (Beltran et al. 2025).
± gives the uncertainty stated by the source.

B1: Ubiquitin-protein ligase residues 30 to 86; numbered along this chain, Q05086 (parent)
chain: KHLIERYYHQLTEGCGNEACTNEFCASCPTFLRMDNNAAAIKALELYKINAKLCDPH

Variants of: B1
Assay: abundance fitness (aPCA) (normalised: wild type 0, dead -1); higher = more abundant; growth selection in yeast, the domain comes from the species named
Conditions: Homo sapiens

Variant	abundance fitness
KHLIERYYHQLTEGCGNEACTNEFCASCPTFLRMDNNAAAIKALELYKTNAKLCDPH	0.003 ± 0.31
KHLIERYYHQLTEGCGNEACTNEFCASCPTFLRMDNNAAAIKALELYKIAAKLCDPH	0.004 ± 0.076
KHLIERYYHQLTEGCGNEACTNEFCASCPTFLRMDNNAAAIKALELYKICAKLCDPH	-0.057 ± 0.09
KHLIERYYHQLTEGCGNEACTNEFCASCPTFLRMDNNAAAIKALELYKIDAKLCDPH	0.034 ± 0.11
KHLIERYYHQLTEGCGNEACTNEFCASCPTFLRMDNNAAAIKALELYKIEAKLCDPH	-0.041 ± 0.096
KHLIERYYHQLTEGCGNEACTNEFCASCPTFLRMDNNAAAIKALELYKIGAKLCDPH	-0.019 ± 0.048
KHLIERYYHQLTEGCGNEACTNEFCASCPTFLRMDNNAAAIKALELYKIHAKLCDPH	-0.05 ± 0.12
KHLIERYYHQLTEGCGNEACTNEFCASCPTFLRMDNNAAAIKALELYKIIAKLCDPH	-0.356 ± 0.1
KHLIERYYHQLTEGCGNEACTNEFCASCPTFLRMDNNAAAIKALELYKIKAKLCDPH	-0.095 ± 0.1
KHLIERYYHQLTEGCGNEACTNEFCASCPTFLRMDNNAAAIKALELYKILAKLCDPH	-0.143 ± 0.074
KHLIERYYHQLTEGCGNEACTNEFCASCPTFLRMDNNAAAIKALELYKIPAKLCDPH	-0.041 ± 0.088
KHLIERYYHQLTEGCGNEACTNEFCASCPTFLRMDNNAAAIKALELYKIQAKLCDPH	-0.11 ± 0.097
KHLIERYYHQLTEGCGNEACTNEFCASCPTFLRMDNNAAAIKALELYKIRAKLCDPH	-0.033 ± 0.051
KHLIERYYHQLTEGCGNEACTNEFCASCPTFLRMDNNAAAIKALELYKISAKLCDPH	0.023 ± 0.063
KHLIERYYHQLTEGCGNEACTNEFCASCPTFLRMDNNAAAIKALELYKITAKLCDPH	-0.006 ± 0.11
KHLIERYYHQLTEGCGNEACTNEFCASCPTFLRMDNNAAAIKALELYKIVAKLCDPH	-0.158 ± 0.07
KHLIERYYHQLTEGCGNEACTNEFCASCPTFLRMDNNAAAIKALELYKIWAKLCDPH	-0.31 ± 0.064
KHLIERYYHQLTEGCGNEACTNEFCASCPTFLRMDNNAAAIKALELYKIYAKLCDPH	-0.018 ± 0.16
KHLIERYYHQLTEGCGNEACTNEFCASCPTFLRMDNNAAAIKALELYKINCKLCDPH	-0.151 ± 0.1
KHLIERYYHQLTEGCGNEACTNEFCASCPTFLRMDNNAAAIKALELYKINDKLCDPH	-0.052 ± 0.085
KHLIERYYHQLTEGCGNEACTNEFCASCPTFLRMDNNAAAIKALELYKINEKLCDPH	-0.102 ± 0.071
KHLIERYYHQLTEGCGNEACTNEFCASCPTFLRMDNNAAAIKALELYKINFKLCDPH	-0.053 ± 0.14
KHLIERYYHQLTEGCGNEACTNEFCASCPTFLRMDNNAAAIKALELYKINGKLCDPH	-0.075 ± 0.049
KHLIERYYHQLTEGCGNEACTNEFCASCPTFLRMDNNAAAIKALELYKINHKLCDPH	-0.147 ± 0.13

Variant	abundance fitness
KHLIERYYHQLTEGCGNEACTNEFCASCPTFLRMDNNAAAIKALELYKINIKLCDPH	-0.45 ± 0.19
KHLIERYYHQLTEGCGNEACTNEFCASCPTFLRMDNNAAAIKALELYKINKKLCDPH	-0.093 ± 0.12
KHLIERYYHQLTEGCGNEACTNEFCASCPTFLRMDNNAAAIKALELYKINLKLCDPH	-0.463 ± 0.065
KHLIERYYHQLTEGCGNEACTNEFCASCPTFLRMDNNAAAIKALELYKINMKLCDPH	-0.189 ± 0.099
KHLIERYYHQLTEGCGNEACTNEFCASCPTFLRMDNNAAAIKALELYKINNKLCDPH	-0.152 ± 0.13
KHLIERYYHQLTEGCGNEACTNEFCASCPTFLRMDNNAAAIKALELYKINPKLCDPH	-0.35 ± 0.1
KHLIERYYHQLTEGCGNEACTNEFCASCPTFLRMDNNAAAIKALELYKINQKLCDPH	-0.289 ± 0.099
KHLIERYYHQLTEGCGNEACTNEFCASCPTFLRMDNNAAAIKALELYKINSKLCDPH	-0.012 ± 0.062
KHLIERYYHQLTEGCGNEACTNEFCASCPTFLRMDNNAAAIKALELYKINTKLCDPH	-0.02 ± 0.079
KHLIERYYHQLTEGCGNEACTNEFCASCPTFLRMDNNAAAIKALELYKINVKLCDPH	-0.082 ± 0.055
KHLIERYYHQLTEGCGNEACTNEFCASCPTFLRMDNNAAAIKALELYKINWKLCDPH	-0.029 ± 0.085
KHLIERYYHQLTEGCGNEACTNEFCASCPTFLRMDNNAAAIKALELYKINYKLCDPH	-0.195 ± 0.15
KHLIERYYHQLTEGCGNEACTNEFCASCPTFLRMDNNAAAIKALELYKINARLCDPH	-0.052 ± 0.17
KHLIERYYHQLTEGCGNEACTNEFCASCPTFLRMDNNAAAIKALELYKINASLCDPH	-0.31 ± 0.33
KHLIERYYHQLTEGCGNEACTNEFCASCPTFLRMDNNAAAIKALELYKINAWLCDPH	-0.437 ± 0.32
KHLIERYYHQLTEGCGNEACTNEFCASCPTFLRMDNNAAAIKALELYKINAKACDPH	-0.098 ± 0.075
KHLIERYYHQLTEGCGNEACTNEFCASCPTFLRMDNNAAAIKALELYKINAKCCDPH	-0.14 ± 0.1
KHLIERYYHQLTEGCGNEACTNEFCASCPTFLRMDNNAAAIKALELYKINAKDCDPH	-0.353 ± 0.12
KHLIERYYHQLTEGCGNEACTNEFCASCPTFLRMDNNAAAIKALELYKINAKECDPH	-0.068 ± 0.099
KHLIERYYHQLTEGCGNEACTNEFCASCPTFLRMDNNAAAIKALELYKINAKFCDPH	-0.048 ± 0.14
KHLIERYYHQLTEGCGNEACTNEFCASCPTFLRMDNNAAAIKALELYKINAKGCDPH	-0.199 ± 0.063
KHLIERYYHQLTEGCGNEACTNEFCASCPTFLRMDNNAAAIKALELYKINAKHCDPH	-0.191 ± 0.15
KHLIERYYHQLTEGCGNEACTNEFCASCPTFLRMDNNAAAIKALELYKINAKICDPH	-0.032 ± 0.15
